The source of these data is patent publication US20090305946A1 (University of California, published 2009).

Assay [1] has as its target tail-less PS-1 (amino acids 1-430 of PS-1) (human, UniProt P49768 1-430). Put plainly: co-immunoprecipitation with MAb to the PS-1 loop, Western blot with anti-Go. From the text:
Verification of the binding of G-protein Gₒ to the cytoplasmic carboxyl terminus of PS-1. A tail-less construct of PS-1 was made in pcDNA3 in which only the cytoplasmic domain of PS-1 immediately following the last TM-domain is deleted (this construct comprises amino acids 1-430). This construct was used to transfect ES (PS-1^{-/-}/PS-2^{-/-}) cells. […] In an identical strategy to the one described above for full-length PS-1, ES (PS-1^{-/-}/PS-2^{-/-}) cells were transfected with cDNAs for tail-less PS-1 and the G-proteins GoA or GoB. Cells extracts were then subjected to immunoprecipitation with PS-1 loop MAb #5232), separated on SDS PAGE and Western blotted with antibodies to Gₒ.
100 μg of extract of ES (PS-1^{-/-}/PS-2^{-/-}) cells co-transfected with cDNAs for tail-less PS-1 and the G-protein GαoA or GαoB were immunoprecipitated with MAb to the large hydrophilic loop of PS-1, followed by Western blot hybridization with affinity purified polyclonal antibody to Gₒ (recognizes both isoforms, GoA and GoB).
For orientation: In western blotting, separated proteins are transferred to a membrane and probed.

For assay [2], the target named is T1, rat G-protein Gαq in rat hippocampal membranes (rat, UniProt P82471 1-359).
T1 construct: also called Gq
T1 sequence (looked up): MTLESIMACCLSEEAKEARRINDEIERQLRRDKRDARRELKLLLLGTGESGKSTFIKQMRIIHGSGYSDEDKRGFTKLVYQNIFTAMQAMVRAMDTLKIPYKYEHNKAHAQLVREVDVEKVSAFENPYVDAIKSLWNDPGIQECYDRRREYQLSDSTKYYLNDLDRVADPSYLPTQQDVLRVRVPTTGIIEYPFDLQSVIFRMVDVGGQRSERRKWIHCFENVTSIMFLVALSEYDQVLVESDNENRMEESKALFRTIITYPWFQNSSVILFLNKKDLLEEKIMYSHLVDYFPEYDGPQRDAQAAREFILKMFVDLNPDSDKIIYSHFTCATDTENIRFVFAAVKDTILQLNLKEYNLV
Put plainly: stimulation of ^35S-GTPγS binding by the peptide in rat hippocampal membranes. Background: Binding of GTPγS marks nucleotide exchange on a G protein.

B1: human G-protein GαoB (other)
chain: GCTLSAEERAALERSKAIEKNLKEDGISAAKDVKLLLLGAGESGKSTIVKQMKIIHEDGFSGEDVKQYKPVVYSNTIQSLAAIVRAMDTLGIEYGDKERKADAKMVCDVVSRMEDTEPFSAELLSAMMRLWGDSGIQECFNRSREYQLNDSAKYYLDSLDRIGAADYQPTEQDILRTRVKTTGIVETHFTFKNLHFRLFDVGGQRSERKKWIHCFEDVTAIIFCVALSGYDQVLHEDETTNRMHESLKLFDSICNNKWFTDTSIILFLNKKDIFEEKIKKSPLTICFPEYTGPSAFTEAVAYIQAQYESKNKSAHKEIYTHVTCATDTNNIQFVFDAVTDVIIAKNLRGCGLY
notes: Co-transfected with PS constructs in ES double-null cells; assayed in detergent extracts; also called GoB; GOB
In the case of B1, the binding result in assay [1] is “no binding”.

B2: PS-1 cytoplasmic peptide C(21-39), last 19 amino acids of the C-tail (peptide)
peptide: TDYLVQPFMDQLAFHQFYI
notes: Synthetic peptide; also called residues 21-39 of the C-tail
Consider B2, for which the binding result in assay [2] is “binds”.

B3: PS-1 cytoplasmic peptide ic3 (KYLPE) (peptide)
peptide: KYLPE
notes: Synthetic peptide; also called loop 3; Cytoplasmic Loop 3 peptide
Take B3: the binding result in assay [2] was “binds”.
